In PMC10075959 (Science Advances, 2023):
Like-named read-outs stand apart in the source and are kept apart here.

How the values were obtained:
[1] = molecular target: the molecule itself; assay: AUC + other: circular dichroism
[2] = molecular target: the molecule itself; assay: AUC + other: circular dichroism; remark: listed apart in the source
AUC = molecular target: the molecule itself; assay: AUC

RQPASTVKPDMAEEIAALVLAKLGKDAGQPKQV (also called murine hepatitis virus) [MHV nucleocapsid LRS peptide 223-255]
Kd [1]: 800 µM

TRSDSNQSSSDLVAAVTLALKNLGFDNQSKSPSSSGT (also called human coronavirus NL63) [NL63 nucleocapsid LRS peptide 174-210]
Kd [1]: 140 µM

MAGNGGDAALALLLLDRLNQLESKMSGKGQQQQGQTV [SARS-CoV-2 N-protein leucine-rich sequence peptide N:210-246 (NLRS)]
Kd [2]: 810 µM | stoichiometry N (AUC): 3

MASGGGETALALLLLDRLNQLESKVSGKGQQQ [SARS-CoV-1 nucleocapsid LRS peptide 211-242]
Kd [1]: 500 µM

B1: MERS nucleocapsid LRS peptide 197-238 (peptide)
peptide: not shown
Kd [1]: 110 µM

B2: 229E-related bat coronavirus nucleocapsid LRS peptide 170-221 (peptide)
peptide: NERLPKSNSKQSNQDDIMAAVAAALEKLGFERPNDASQPQKKQNKGTPKPSR
Kd [1]: 290 µM
